Results from article PMC8319846 (Frontiers in Microbiology, 2021).

How the values were obtained:
[1] = target: native Hla in S. aureus 8325-4 supernatants (Staphylococcus aureus 8325-4 (NCTC 8325 …, UniProt Q2G1X0)); assay: far-Western, overlay or dot blot; conditions: one partner purified
[2] = target: Hlb (Staphylococcus aureus, strain , UniProt P09978); assay: ELISA; conditions: both partners purified
[3] = target: HlgC (Staphylococcus aureus, strain , UniProt Q07227); assay: ELISA; conditions: both partners purified
[4] = target: LukD (Staphylococcus aureus, strain , UniProt O54082); assay: ELISA; conditions: both partners purified
[5] = target: HlgA (Staphylococcus aureus, strain , UniProt P0A074); assay: ELISA; conditions: both partners purified
[6] = target: HlgB (Staphylococcus aureus, strain , UniProt P0A077); assay: ELISA; conditions: both partners purified
[7] = target: LukE (Staphylococcus aureus, strain , UniProt O54081); assay: ELISA; conditions: both partners purified
[8] = target: LukF (Staphylococcus aureus, strain , UniProt Q5FBD2); assay: ELISA; conditions: both partners purified
LukF, sequence (P31715 26-323): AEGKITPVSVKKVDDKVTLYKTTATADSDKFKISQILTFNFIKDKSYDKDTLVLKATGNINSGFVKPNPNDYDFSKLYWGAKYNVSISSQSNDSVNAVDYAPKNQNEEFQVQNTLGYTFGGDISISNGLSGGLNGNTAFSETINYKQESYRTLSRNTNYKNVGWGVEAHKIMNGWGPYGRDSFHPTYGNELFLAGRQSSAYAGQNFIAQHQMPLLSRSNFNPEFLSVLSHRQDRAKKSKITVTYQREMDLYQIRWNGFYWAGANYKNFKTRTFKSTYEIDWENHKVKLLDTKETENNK

HlgB, sequence (P0A077 26-325): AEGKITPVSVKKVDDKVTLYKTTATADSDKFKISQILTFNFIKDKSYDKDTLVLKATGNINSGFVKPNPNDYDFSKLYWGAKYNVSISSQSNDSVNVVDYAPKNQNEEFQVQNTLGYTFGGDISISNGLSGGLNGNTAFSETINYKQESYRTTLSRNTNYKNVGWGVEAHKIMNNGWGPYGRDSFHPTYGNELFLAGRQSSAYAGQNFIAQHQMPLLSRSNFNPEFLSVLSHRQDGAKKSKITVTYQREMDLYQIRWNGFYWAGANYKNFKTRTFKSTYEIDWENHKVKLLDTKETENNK
HlgC, sequence (Q07227 30-315): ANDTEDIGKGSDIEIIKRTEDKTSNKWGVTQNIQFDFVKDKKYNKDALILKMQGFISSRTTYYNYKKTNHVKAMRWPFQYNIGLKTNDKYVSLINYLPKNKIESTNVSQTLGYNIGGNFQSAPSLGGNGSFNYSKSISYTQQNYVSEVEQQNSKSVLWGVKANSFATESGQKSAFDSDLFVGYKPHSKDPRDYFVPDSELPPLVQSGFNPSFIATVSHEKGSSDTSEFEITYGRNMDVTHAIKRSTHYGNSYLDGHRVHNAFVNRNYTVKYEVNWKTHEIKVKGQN
HlgA, sequence (P0A074 30-309): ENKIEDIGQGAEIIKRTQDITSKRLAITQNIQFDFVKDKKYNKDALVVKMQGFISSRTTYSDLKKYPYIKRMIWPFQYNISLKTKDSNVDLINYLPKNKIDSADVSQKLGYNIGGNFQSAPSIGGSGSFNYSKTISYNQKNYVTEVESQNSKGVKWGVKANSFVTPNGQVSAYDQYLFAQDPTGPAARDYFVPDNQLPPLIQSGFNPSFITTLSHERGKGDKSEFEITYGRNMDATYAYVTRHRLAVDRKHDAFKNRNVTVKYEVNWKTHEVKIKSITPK
LukD, sequence (O54082 27-327): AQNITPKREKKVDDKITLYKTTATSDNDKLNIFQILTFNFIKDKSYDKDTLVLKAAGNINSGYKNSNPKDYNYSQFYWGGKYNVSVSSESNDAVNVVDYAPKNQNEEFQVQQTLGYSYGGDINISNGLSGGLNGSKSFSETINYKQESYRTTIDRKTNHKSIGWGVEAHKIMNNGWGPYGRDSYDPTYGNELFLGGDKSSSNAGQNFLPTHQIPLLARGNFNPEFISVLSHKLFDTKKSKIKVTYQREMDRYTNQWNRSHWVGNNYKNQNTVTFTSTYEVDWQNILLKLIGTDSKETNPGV
native Hla in S. aureus 8325-4 supernatants (Staphylococcus aureus 8325-4, sequence (Q2G1X0 27-319): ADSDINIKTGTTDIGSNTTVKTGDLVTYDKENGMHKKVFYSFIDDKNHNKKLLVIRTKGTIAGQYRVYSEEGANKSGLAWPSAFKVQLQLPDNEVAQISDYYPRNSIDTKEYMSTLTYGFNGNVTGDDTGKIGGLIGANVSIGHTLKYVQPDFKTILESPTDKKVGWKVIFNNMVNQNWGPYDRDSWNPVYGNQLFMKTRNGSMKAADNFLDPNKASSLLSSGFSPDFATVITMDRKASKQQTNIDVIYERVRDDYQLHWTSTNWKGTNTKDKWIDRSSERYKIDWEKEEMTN
LukE, sequence (O54081 29-314): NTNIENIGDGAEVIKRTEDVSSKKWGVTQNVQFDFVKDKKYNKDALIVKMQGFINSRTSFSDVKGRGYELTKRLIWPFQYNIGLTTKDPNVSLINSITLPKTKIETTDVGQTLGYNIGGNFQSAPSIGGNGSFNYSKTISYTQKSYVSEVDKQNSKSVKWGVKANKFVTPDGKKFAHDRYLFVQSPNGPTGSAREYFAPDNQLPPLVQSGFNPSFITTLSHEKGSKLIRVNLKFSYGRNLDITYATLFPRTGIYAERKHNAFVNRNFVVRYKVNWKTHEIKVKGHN
Hlb, sequence (P09978 35-330): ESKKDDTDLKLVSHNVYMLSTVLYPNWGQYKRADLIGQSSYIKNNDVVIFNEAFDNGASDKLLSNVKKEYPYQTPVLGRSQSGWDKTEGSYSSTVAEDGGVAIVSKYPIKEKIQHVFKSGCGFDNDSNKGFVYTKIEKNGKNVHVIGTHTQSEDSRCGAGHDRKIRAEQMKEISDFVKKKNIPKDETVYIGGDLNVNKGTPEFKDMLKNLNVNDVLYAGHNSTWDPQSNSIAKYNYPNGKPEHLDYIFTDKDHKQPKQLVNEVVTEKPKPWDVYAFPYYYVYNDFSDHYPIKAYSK

B1: YG1 human anti-Hla monoclonal antibody (antibody, V domains shown)
VH: QVQLVQSGAEMQKPGASVKVSCKVTGYALASLSLHWVRQTPGAGLEWLGGLDPGHGETIYAEKLQGRVVMTGDTSTDTAYMQLSSLTSEDTAIYYCASDWLRHGFEFWGQGTTVTVSS
VL: EIVLTQSPATLSVSPGDGATLSCRASQSVSGNLAWYQKKPGQAPRLLIYDTSIRAAGVPPRFSGSGSGTEFTLTISSLQSEDFAVYYCQQYHNLPPLTFGPGTKLEIK
notes: also called YG1 mAb; source: expressed and purified as a full-length human IgG1 antibody
Q: Does B1 bind [1]?
A: binds

Q: Does B1 bind [2]?
A: no binding (tested: 1 μg/ml)

Q: Does B1 bind [3]?
A: no binding (tested: 1 μg/ml)

Q: Does B1 bind [4]?
A: no binding (tested: 1 μg/ml)

Q: Does B1 bind [5]?
A: no binding (tested: 1 μg/ml)

Q: Does B1 bind [6]?
A: no binding (tested: 1 μg/ml)

Q: Does B1 bind [7]?
A: no binding (tested: 1 μg/ml)

Q: Does B1 bind [8]?
A: no binding (tested: 1 μg/ml)
